In the supplement of paper PMC9170038:

Test system: MS2 coat protein
Test: apparent KD of MS2 coat protein; designed switch direction (-1 OFF switch, 1 ON switch): 1; higher = weaker reporter binding
Summary of the method: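 Designed RNA switches sharing common flanks were transcribed on Illumina chips by stalled E. coli RNA polymerase. They were titrated with SNAP-549-labelled MS2 coat protein, from 0.7 or 1.5 nM doubling to 3 µM, in Tris-HCl pH 7.5 buffer with KCl, MgCl2, BSA, DTT, tRNA and Tween-20. Titrations ran without input, with 200 uM small-molecule ligand, or with an oligonucleotide input. The apparent KD of each design is the median over its clusters, after curve-fitting of normalised cluster fluorescence.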

[1] = Eterna round: R95, input ligand: FMN 200 uM
[2] = Eterna round: R95, input ligand: microRNA oligo, concentration not stated
[3] = Eterna round: R95, input ligand: none
[4] = input ligand: microRNA oligo, concentration not stated

| Sequence | apparent KD of MS2 coat protein [1] | apparent KD of MS2 coat protein [2] | apparent KD of MS2 coat protein [3] | apparent KD of MS2 coat protein (input ligand: FMN 200 uM) | apparent KD of MS2 coat protein [4] | apparent KD of MS2 coat protein (input ligand: none) |
| --- | --- | --- | --- | --- | --- | --- |
| UACAAUCUAUCUGAGGAUAUCAUGAAAUAAACAUGAGGAUCACCCAUGUGCAGGAAAACUGCAUAUGAGAAGGCAGAUAGAUUGA [salish99_ss2_r3_018] (puzzle: Same State 2) | 50.2 nM | 1130 nM | 1810 nM |  |  |  |
| UACAAUCUAUCUGAGGAUAUCAUGAAGAAAACAUGAGGAUCACCCAUGUGCAGGAUAACUGCAAAUGAGAAGGCAGAUAGAUUGG [Mat - Same State 2 - Mod - D4] (puzzle: Same State 2) | 12.9 nM | 17 nM | 24.6 nM |  |  |  |
| UACAAUCUAUCUGAGGAUAUCAUGAAUUACACAUGAGGAUCACCCAUGUGCAGGAAAACUGCAUAUGAGAAGGCAGAUAGAUUGU [salish99_ss2_r3_065] (puzzle: Same State 2) | 81 nM | 1060 nM | 1970 nM |  |  |  |
| UACAAUCUAUCUGAGGAUAUCAUGAUUCUAACAUGAGGAUCACCCAUGUGCAGGAAAACUGCAUAUGAGAAGGCAGAUAGAUUGU [salish99_ss2_r3_072] (puzzle: Same State 2) | 67.7 nM | 33.3 nM | 148 nM |  |  |  |
| UACAAUCUAUCUGAGGAUAUCAUGUAUUAAACAUGAGGAUCACCCAUGUGCAGGAAAACUGCAUAUGAGAAGGCAGAUAGAUUGU [salish99_ss2_r3_064] (puzzle: Same State 2) | 428 nM | 41.9 nM | 168 nM |  |  |  |
| UACAUACGCGGAGGAUAUGGGCGAGGCGCAGAGGUCUGCGUCAAAACAUGAGGAUCACCCAUGUCCCAGAAGGCCGCGUAAACU [Enisen] (Eterna round: R96, puzzle: Same State NG 2) |  |  |  | 15.7 nM | 51.3 nM | 73.4 nM |
| UACCAACAUAUAGAACAAGCGUGCUCGUCACAUGAGGAUCACCCAUGUCUAAGCGCUGAACCUGCAUCCUCAGCGCC [Oniste] (puzzle: Sensor for hsa-mir-208a) | 78.5 nM | 26.5 nM | 85.9 nM |  |  |  |
| UAGACAAGCUUUAUGUUCUUCCUUUUCCUACAUGAGGAUCACCCAUGUAGUCUGUCGAUUGUGAGUGUAGUUGAGAU [JR_SHM208A_Sub025] (puzzle: Sensor for hsa-mir-208a) | 18.7 nM | 16 nM | 18.7 nM |  |  |  |
| UAGAGAGGAAGCGAGGAUAUCGUGGGAGGGACAUGAGGAUCACCCAUGUAUGAUGUUGAGAGGAACGAGAAGGCGCAGGAAAGUA [JR_SS2_Sub077] (puzzle: Same State 2) | 151 nM | 137 nM | 349 nM |  |  |  |
| UAGAGAGGAAGCGAGGAUAUCGUGUUAGGUACAUGAGGAUCACCCAUGUUUUAGGUAGAGGUAGGCGAGAAGGCGCAGGAGAGGA [JR_SS2_Sub091] (puzzle: Same State 2) | 24.9 nM | 29.2 nM | 24.4 nM |  |  |  |
| UAGGAACAUGAGGAUCACCCAUGUACCUCAUAUGGAGAAACACAGGAUAUACUUAGCGAAAGAGAGUAGAAGGGUGAAGAGAGG [Default title] (Eterna round: R96, puzzle: Same State NG 3) |  |  |  | 19.4 nM | 30.8 nM | 32.6 nM |
| UAGGAACAUGAGGAUCACCCAUGUACCUCAUAUGGAGAAACACAGGAUAUGCUGAGGGAAACACAGCAGAAGGGUGAAGAGAGG [Default title] (Eterna round: R96, puzzle: Same State NG 3) |  |  |  | 22.7 nM | 27.1 nM | 32.8 nM |
| UAGGAGAGUAGAACAUGAGGAUCACCCAUGUAACCUCAUGUAUAGGAUAUGUUAAGAGUAGUAGAACAGAAGGAUAAGUAGGAU [Default title] (Eterna round: R96, puzzle: Same State NG 3) |  |  |  | 694 nM | 494 nM | 655 nM |
| UAGUACAAGCUUUUUGCCCGUCUUAUUUAACAUGAGGAUCACCCAUGUAAGGUGAAAGUUAGAGAGUGGAGGUUGAA [JR_SHM208A_Sub049] (puzzle: Sensor for hsa-mir-208a) | 205 nM | 227 nM | 249 nM |  |  |  |
| UAGUACAUGCUUUUUGUCCGUCUUAGAUAACAUGAGGAUCACCCAUGUAAGGUGAAAGUUAUAUAGUUUAGGAAUAU [JR_SHM208A_Sub057] (puzzle: Sensor for hsa-mir-208a) | 136 nM | 323 nM | 178 nM |  |  |  |
| UAGUACAUGCUUUUUGUCUGUCUUAGAUCACAUGAGGAUCACCCAUGUUUGGUGAAAGUUAUAUAGUUUAUGACUAU [JR_SHM208A_Sub059] (puzzle: Sensor for hsa-mir-208a) | 114 nM | 96.8 nM | 162 nM |  |  |  |
| UAGUGAUUGCAAGGAUAUGCUAGUUUUUAUUUGUGUUUGAUAACAAACAUGAGGAUCACCCAUGUGCAGAAGGUGCAAGAUAUG [JR_SSNG2_Sub078] (Eterna round: R96, puzzle: Same State NG 2) |  |  |  | 193 nM | 361 nM | 647 nM |
| UAGUGAUUGCAAGGAUAUGCUUGUGUUUUAUUUUUUUUAAUAUCUAACAUGAGGAUCACCCAUGUGCAGAAGGUGCUUGAUUUG [JR_SSNG2_Sub076] (Eterna round: R96, puzzle: Same State NG 2) |  |  |  |  | 46.5 nM |  |
| UAGUGCAUUAGAGGAUAUUCUUACGGAAACGGUAAGACAUGAGGAUCACCCAUGUUGUCACAUGGGAAGAAGGCUGAUGUGCUA [Omei SS(NG)2 Bv5] (Eterna round: R96, puzzle: Same State NG 2) |  |  |  | 82.6 nM | 104 nM | 510 nM |
| UAUGAACAUGAGGAUCACCCAUGUGGAAAAGACACAGGAUAUCAUCCCGGACGUGCGAGAUGAGAAGGGUGAUGGU [Edrive] (puzzle: Same State 1) | 267 nM | 205 nM | 367 nM |  |  |  |
| UAUGAACAUGAGGAUCACCCAUGUGGUAAGAUCACAGGAUAUCACCUCGGACGUGCGAUGUGAGAAGGGUGAUGGU [Same State 1 - Mod of Vinnie Anrelari v.2] (puzzle: Same State 1) |  | 419 nM |  |  |  |  |
| UAUGAAUUGCAAGGAUAUUGAUAACAUGAGGAUCACCCAUGUAAUUGAUCGAGUUAGAUCAGUUACAAGAAGGUGCUAUUGUUU [JR_SSNG2_Sub037] (Eterna round: R96, puzzle: Same State NG 2) |  |  |  | 1810 nM | 33.2 nM | 70 nM |
| UAUGACUUACAAGGAUAUUAAUAACAUGAGGAUCACCCAUGUGGCUGUGUGUGUUAGAUAAGCUAUAAGAAGGUGUGUGUGUUU [JR_SSNG2_Sub095] (Eterna round: R96, puzzle: Same State NG 2) |  |  |  | 66.2 nM | 244 nM | 223 nM |
| UAUGAUGCCGUAGGAUAUCUAGGAUAUGGACGAGGAUCACCCGAGCAGCAUCAGCGCACCAGAGGAGAGAAGGACGCUUUGGAA [pwkr ssNG2 2F5 2FMN.22] (Eterna round: R96, puzzle: Same State NG 2) |  |  |  | 477 nM | 658 nM | 486 nM |
| UAUUAAUCUGUAGGAUAUGUAGGAUAUGGACGAGGAUCACCCGAGCAGCAUCAGCGCACCAGAGGACAGAAGGACGGCCGGGUG [pwkr ssNG2 2F5 2FMN.24] (Eterna round: R96, puzzle: Same State NG 2) |  |  |  | 1670 nM | 411 nM | 177 nM |
| UAUUUAAUCAUAGGAUAUAGUGUGUAAUUUGGACUAGAAGGAUGAAACAUGAGGAUCACCCAUGUGGUAAAUGGGAUACAUUCC [JR_SSNG1_Sub100] (Eterna round: R96, puzzle: Same State NG 1) |  |  |  |  | 59.8 nM |  |
| UCAAGCGAAAGGCUCGUCUUAUGCAAGAAACAUGAGGAUCACCCAUGUGAGGGACGAUUGAGUUAGAUGGAAUGGAA [JR_SHM208A_Sub031] (puzzle: Sensor for hsa-mir-208a) | 24.7 nM | 66.6 nM | 25 nM |  |  |  |
| UCAAUCAUGUAAGGAUAUGCAGCCGAAACGGCUGCAGAAGGUACUAUAAUUACAUGAGGAUCACCCAUGUUAUAAAAUUUAUAU [Mat - Same State NG 1 - JL mod - D67] (Eterna round: R96, puzzle: Same State NG 1) |  |  |  |  | 85 nM |  |
